Test: soluble on expression in E. coli; label from the status in PepcDB or PDB records

Sequence	soluble on expression in E. coli
EVQLQQSGPELVKPGTSVKMSCKASGYTFTDYYMKWVKHSHGKSLEWIGDINPSNGGTLYNQKFKGKATLTVDKSSSTASMQLSRLTSEDSAVYYCSRGDGIHGGFAYWGQGTTVTVSSAKTTAPSVYPLAPVCGDTTGSSVTLGCLVKGYFPEPVTLTWNSGSLSSGVHTFPAVLQSDLYTLSSSVTVTSSTWPSQSITCNVAHPASSTKVDKKIVPQV	soluble
MAHHHHHHMTENFLIFGLPFLPQCNDTLPSSQFKCLVAEMGPLGQALRPFVVPTLKVGTLDSLIEASDELAKLDPQLENNVEKLIALMEETSQKPRSVVSALRINQTQEMTPAAYIKNFLWSSAQFDTREKIQSLIEKLSQISASIEERIRVLLSEYNETRNRLTAVNRKTQGNLSVKPIRELVASYNQKFQCFVDTEMLVTLFVVVPLASQKEWLETYWSLNEFVCPQSNRVIAEDKECVLNSIVTFRKAMDDVKMICRKKRFTVRDIDGVDDLSVAEVKELNQKAEKERKALYTVLWQQYSLCYVAWVHVKALRVFVESLLKYGLPPRCISVVLQVDGKKEAEIRKKILQIYPNLISPLTNEPPTDTGMLQYEYPYVSLKVTNFQKD	not soluble
MTKFVAKKAILLLSLLLLGTAESKPLDAEQQHIDDQHVRKERQLKMAGSADPDVKMVANVTPATGSQPMSMTMGVPMNQMALSSVGGQLVRYPNYPGLIYPGLAPAPGLNGVPGLQTNIANNYPSYPDPNLTGSVPGFNPFGSFGYPGVAPMYGNSLMYPNPQLPNGFVPNPAVDNFQSLNNIVNMANVQGLAGGSSGIYPAPQGFGGVSPGLYPAPQGFGGANPGLYPAPQVNMQGLYPPSGGFLERMNMQGYAPGFLEHHHHHH	not soluble
AADITVASYNIHKGVGTDRRRDLRRTAAVIAELDADLVALQEADRRFGDRAGLLDLEHLKDETGLVPVKVEGRGRAHGWHGNLLLVRDAEVEEVQKIVLPSFEPRGALMIDMMIRGRPLRVIAAHLGLLPASRAAQTRHLLERIEASTPRPTLLMGDLNEWRGTGAAMGHLARHFTGGVMVRSFPSRFPILALDRLMTCKHGQLHDVSTHDTPLARRASDHLPIKARLHLP	not soluble
GSHGRSRFVKKDGHCNVQFINVGEKRNETLVFSHNAVIAMRDGKLCLMWRVGNLQKSHLVEAHVRAQLLKSRITSEGEYIPLDQIDINVGFDSGIDRIFLVSPITIVHEIDEDSPLYDLSKQDIDNADFEIVVILEGMVEATAMTKQCRSSYLANEILWGHRYEPVLFEEKHYYKVDYSRFHKTYEVPNTPLCSARDLAEKKYILSNA	soluble
SDRPLSVHLNLGQKGNRKTSCPIKINQFEGHFMKLQADSNYLLSKEYEELKDVGRNQSCDIALLPENRGKNRYNNILPYDATRVKLSNVDDDPCSDYINASYIPGNNFRREYIVTQGPLPGTKDDFWKMVWEQNVHNIVMVTQCVEKGRVKCDHYWPADQDSLYYGDLILQMLSESVLPEWTIREFKICGEEQLDAHRLIRHFHYTVWPDHGVPETTQSLIQFVRTVRDYINRSPGAGPTVVHCSAGVGRTGTFIALDRILQQLDSKDSVDIYGAVHDLRLHRVHMVQTECQYVYLHQCVRDVLRARKLRSEQ	soluble
MKEGMKVVLVGSPGIEGTWILAKDYDQLLLEKGISREIIEKAKEFKKDIVVQPKALSILDYVVAMHDATEGGIMQAMLEVAKASGYTVSINLDKIVLRRETKIITKALNIDPLRLISSGSFIAVSNTPEKILERISEAYIIGEIKRGDPVLEIK	soluble
MGSDKIHHHHHHMFFETTFHDATEQEASLPGWRQEYRQVSTGGYDGRTMAILLPGVEILRETISVGTEQMFSAPEGSMIFYYYPKRDRSELVRGEKATGVSGFALNWTNRIGFMDADSDLLMLVLRRDAVADEDRSRIAELVEPPLENAAFLADWLLSLLGGARQQSHPCAWGKFDGVLADVITDRFELLFQKSLVRQTPHIAQTEQIYRKIRDRIFDAPDMPHSVKSLSRDLGVSAFNLRASCQSFTQIPLDRILMMLRLNGARRDLLHARCSPRKVSDIAMDWGFFHWSRFALRYKSLFGETPSQTLKG	not soluble
RPQISIRVDVPKEEKGIEAMICLDISNSMLCEDVKPNRLSFAKQVLGKLFDGLQNDKVGLVVFAGNAYTQIPITTDLSAAKQFLADISPNMVTAQGTAIGAAIELASKSFSDNKEIGKTIIVLTDGENHEGNAIEAAQQAHEAGIRVNVIGLGTALGAPIPIEEGYLKDETGNPVVTKFDEKMCRDIASAGEGTFFSGQSASALVRAIESQLDKLPKAVLSSSSSSGYREV	not soluble
MKIRVADEKELPMILQFLTEVKAYMDVVGITQWTKDYPSQGDIQEDITKKRLYLLVHEEMIFSMATFCMEQEQDFVWLKRFATSPNYIAKGYGSLLFHELEKRAVWEGRRKMYAQTNHTNHRMIRFFESKGFTKIHESLQMNRLDFGSFYLYVKELENQSIV	soluble
MSTFGEHRPYVFLPPADLDRIAAQWSKDSARPDAQGRGIAIFSAITGSYDSINHHEHLIPGADYLLFSDAPKPRYVYQPRQAPWFDCDTVRAARFIKTHPHMLLGGYRIAVWIDGNILIRGDLLPLVQRFEESGLAFGAVPHPLRQSVYAEAVECMKRGKDDEATIRRQMQRYRREEFDCEDLIESNLLMFRLGHPSLAPLLDTWWAQIESGSRRDQLSLNYALHKTGVEWLALTQRPHSVRDHPALALMHHRSQFNPLEHHHHHH	soluble
MEALILEPSLYTVKAILILDNDGDRLFAKYYDDTYPSVKEQKAFEKNIFNKTHRTDSEIALLEGLTVVYKSSIDLYFYVIGSSYENELMLMAVLNCLFDSLSQMLRKNVEKRALLENMEGLFLAVDEIVDGGVILESDPQQVVHRVALRGEDVPLTEQTVSQVLQSAKEQIKWSLLR	not soluble
MRYPEHADPVITLTAGPVNAYPEVLRGLGRTVLYDYDPAFQLLYEKVVDKAQKAMRLSNKPVILHGEPVLGLEAAAASLISPDDVVLNLASGVYGKGFGYWAKRYSPHLLEIEVPYNEAIDPQAVADMLKAHPEITVVSVCHHDTPSGTINPIDAIGALVSAHGAYLIVDAVSSFGGMKTHPEDCKADIYVTGPNKCLGAPPGLTMMGVSERAWAKMKANPLAPRASMLSIVDWENAWSRDKPFPFTPSVSEINGLDVALDLYLNEGPEAVWARHALTAKAMRAGVTAMGLSVWAASDSIASPTTTAVRTPDGVDEKALRQAARARYGVVFSSGRGETLGKLTRIGHMGPTAQPIYAIAALTALGGAMNAAGRKLAIGKGIEAALAVIDADA	soluble
MGSDKIHHHHHHMLINADFSCRAALAPEHYQWVQSPQNGVERVMLDRVGAEKARATSIVRYAPESNFPYHLHPGGEEILVLSGTFSADNSDYPAGWYLRNPPKSGHQPYSNVGAVIFVKLWQMTADETHHVAIDTKDAKNWHRQGNREVCHLFLDTSEQVSLQRIEAGEILFPETIARGAELLVIEGELIEDSMLDKGQSYKKGSWIRLPVDATSPIVAGANGATVYLKTGHLSRIIGIDVY	not soluble
MSFIKTFSGKHFYYDKINKDDIVINDIAVSLSNICRFAGHLSHFYSVAQHAVLCSQLVPQEFAFEALMHDATEAYCQDIPAPLKRLLPDYKRMEEKIDAVIREKYGLPPVMSTPVKYADLIMLATERRDLGLDDGSFWPVLEGIPATEMFNVIPLAPGHAYGMFMERFNDLSELRKCA	soluble
MGSDKIHHHHHHMTVLHSVDFFPSGKAPVAIEPRLPQAAFPEHHHDFHEIVIVEHGTGIHVFNGQPYTISGGTVCFVRDHDRHLYEHTDNLCLTNVLWRSPDAFQFLAGLDQLLPQEQDGYYPSHWRVNQSVLQQVRQLVGLMERAGDGMDAPAVANREILFMQLLVLLRRSSLMEGATNNDAKLNQLMAWLEDHFAEEVCWEAVAEQFSLSLRTLHRQLKQHTGLTPQRYLNRLRLIKARHLLRHSDHSVTEIAYRCGFGDSNHFSTLFRREFNWSPRDIRQGRDAIIQ	not soluble
LFSYKSTMWQFINKVTSDRINILNQYYEKFGIHILPQQVTNYRSAGIIVMDNIYVT	not soluble
GSELKDYYAIMGVKPTDDLKTIKTAYRRLARKYHPDVSKEPDAEARFKEVAEAWEVLSDEQRRAEYDQMWQHR	soluble
PRKASRKPPREESSATCVLEQPGALGAQILLVQRPNSGLLAGLWEFPSVTWEPSEQLQRKALLQELQRWAGPLPATHLRHLGEVVHTFSHIKLTYQVYGLALEGQTPVTTVPPGARWLTQEEFHTAAVSTAMKKVFRVYQGQ	soluble
MGSDKIHHHHHHMNTRILNALKQTTLIEEKQKASHCFVEDMPPYAINQELSLKEHGRVLSNYFFKNKDIYISRHNRYADYPTHTHTFLEMNYMLQGHATEIVDDKKITLNTGDLLLLDEGSTHSIKALGDNDLLINILFRTKNISINLLNDLRRSNNIFYDFLLSQVIEDSNHKRDYLVFTKKRNNEVQETLDRIIDEYYLKRDFSNSIIKSYLSILLVQLVREYPLNGPHQENKSSLLAIKVLKAIAEEYKTVSLEELANRYNYNKNYLSNIFKSEVGQTFSEVLTRQRLIQAHTLIASTSLPIATIMEQVGIKNKTFFYQKYKNYYKTLPSTDR	not soluble
MAHHHHHHMPFVDHNKYKIQREDLPALPHFTDFNDPRFCGTNNKQKNGILAYYQWLHCVGNWGEEHSMCKKMRWYVERMMQEVWLEKWEEKRALGHFDHVLLYGVKPWKDFEPLYQPVKTNRKGAYEFWLDRDFEPLYDADASDFCEKAPILHDIFVKGKKPVYDE	not soluble
MDALNNKLYFIDSTKHKIFVEQIINGMHDWVRVIDINDNIIFVNESMAKALGKNVIGEKCYKAIGKSEPCENCTSRKAVFEGTIQAKEEIIGDRIFSVKSSPIRDENGQITAVVEVLRDITEMKKMQKKILEHNQKLQSELNMARRLQCSLLPKELPQDKIDFSYVYRPCEAIGGDFLDIFKIDDEHIGIYIADVSGHGVPASMLTVFLRSSINKKTLSPAEALNQLYKEFNRDYYDQELYITIFYAIIDTKNKNIIYSNAGHNASPVLFNHESHRFDILRIPGVPISDWVDNPEYTEKSISIEKGDRLFMYTDGIVELRNNKGEQFGEERLLNILLGEKMPPAMTLDRIIEAAMEFANIKNFNKIIDDITMALLEIL	soluble
MTRKFLNILKERTGVESITREQVRGIRRLVKKAREWDERKAQRYAKSAGKISDEEYSRLWSIDSYVISDSDKEKLKNLDQKTVFNNIMWLSRNAEKIDSNMKKFLGMHVWVVNYWIKTVGSATVRKFLRENNYSGEFVYFLYRYFNL	not soluble
MGSDKIHHHHHHMEQNAEKRSIVGDDNSTVKRQDTSPSKGIAHIKPEYIVPLKQNENQKVAIYDEEMSSDRMTNEFAGGTNKKNKNGRGKKRGQNKNRDNRQVKEQNVLCPRLIHGDISKCSFGDNCRFVHDINLYLSTKKPEVESNIFPSCPVFNSLGFCPMGFKCRFLSSHLNKEDNILISKKEIDPDAQTIWSVKGEVNHISPERKLDLIKRRFPFTKSNEILEIIDSFQQECRDSMKPEEEVESTPQLKKQDPDVEQPVAPQVEQRNKELSEHRMKQREVYLKYKDTRYFAQEKKPLDLYHKKIVSPLTTVGNLPYRRLMRKLGADVTYSEMALAVPLIQGTNSEWALPKAHTSEFPGFGVQVACSKAWQAAKAAEALANSVSEISEINLNSGCPIDLLYRQGSGSALLDNPARMIRCLNAMNYVSKDIPITVKIRTGTKEGHPIAEGLVKRLVNETDVAAITLHGRSRQQRYTKSADWDYVSQVADTLRSAEADFIETEQGKEGRDSKNRIQFVGNGDVNNFEDWYRYLNGNENIDSVMVARGALIKPWIFEEVESQQYLDKTSTERLDILRDYAQFSMEHWGTDEYGISQCRRFFCEFMSFFHRYVPWVFVKDTL	not soluble
LHRILKVVFPKRKIVLWVIGGDLHLEVEKGRYRVDVLKSLQYLLVEGQAMKDALCGQGVENVKVMPNFKDISLFSPLHCHTPYTPSKVLRLVFFSRIMPDKGCDLILDLAHKLNERGYKDKFVIDFYGPIAPDYSKRFSSILDTLPNVHYQGTLD	not soluble

— the DeepSol protein solubility set
